Experimental data from the supplement of paper PMC9942255.
Where “and” joins values, the source holds several entries; their conditions need not be identical. Equal values may be shown once.

System: Bacillus subtilis DB104 (SP-AmyQ fusion secretion)
Test: AmyQ secretion efficiency, weighted average sort bin (1 = best secretion, 10 = worst) (bin number (weighted average, 1-10)); higher = lower secretion efficiency
How it was run: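 Occupied alginate beads were sorted by large-particle flow cytometry into 10 equally populated bins according to green/red fluorescence ratio. Each bead (~65 nL) held fluorescein-starch and about 0.3 cells of a B. subtilis DB104 library expressing mature AmyQ fused to designed signal peptides from the amyE locus, and beads were grown about 13 h at room temperature and stained with nile red before sorting. Bin amplicons were Illumina-sequenced, and the secretion score is the read-frequency-weighted average bin number, normalised to beads per bin, excluding low-abundance sequences.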

| Sequence | AmyQ secretion efficiency |
| --- | --- |
| MTMLRKIIGWILLLCIIPLFAFTVIHSGKEV | 6.94 |
| MTMLRKIIGWILLLCIIPLFAFTVIISGKEV | 5.66 |
| MTMLRKIIGWILLLCIIPLFAFTVIMSGKEV | 7.42 |
| MTMLRKIIGWILLLCIIPLFAFTVINSGKEV | 6.45 |
| MTMLRKIIGWILLLCIIPLFAFTVIPSGKEV | 8.07 |
| MTMLRKIIGWILLLCIIPLFAFTVIPVVTVASGKEV | 4.51 |
| MTMLRKIIGWILLLCIIPLFAFTVIQSGKEV | 6.03 |
| MTMLRKIIGWILLLCIIPLFAFTVIRSGKEV | 7.52 |
| MTMLRKIIGWILLLCIIPLFAFTVISSGKEV | 6.13 |
| MTMLRKIIGWILLLCIIPLFAFTVITSGKEV | 6.41 |
| MTMLRKIIGWILLLCIIPLFAFTVIVSGKEV | 5.52 |
| MTMLRKIIGWILLLCIIPSKQQSSIASGKEV | 6.84 |
| MTMLRKIIGWILLLCIIVSVAATITLIPLFAFTVIASGKEV | 4.26 |
| MTMLRKIIGWILLLCPLFAFTVIASGKEV | 8.01 |
| MTMLRKIRKWILLLCIIPLFAFTVIASGKEV | 6.76 |
| MTMLRKIRRKKLLLCIIPLFAFTVIASGKEV | 6.88 |
| MTMLRKIRRKRKRLCIIPLFAFTVIASGKEV | 6.99 |
| MTMLRKKGRWSLLLCIIPLFAFTVIASGKEV | 6.17 |
| MTMLRKKTGWILLLCIIPLFAFTVIASGKEV | 3.88 |
| MTMLRKNMSIIGWILLLCIIPLFAFTVIASGKEV | 5.45 |
| MTMLSMIIGWILLLCIIPLFAFTVIASGKEV | 7.31 |
| MTMSSGMSSILAVSVLLLLSRLPVQASLTSE | 4.1 |

| Sequence | AmyQ secretion efficiency |
| --- | --- |
| MTQFAITLSVLCALILLVPTLLVIPFQHNKEAGASV | 7.59 |
| MTRFILVLSFLSIIVAYPIQTNASPM | 5.75 |
| MTRLLSTLLIGIMLLTFAPSAFAKQD | 1.6 |
| MTRTGAIIAAVIVIAALITFNVRNASPG | 7.74 |
| MTSAFILSAAAAVGLFTFGGVQQASAKEL | 2.86 |
| MTSGTFIIWTIILGALLVCCIAVAYTLTKSQAGASSS | 4.88 |
| MTSGTLWISLLFALTLIFTMAFSNMSAQAAGK | 2.62 |
| MTSLMMLSMLTVMIASLFIFSSQALAVQY | 3.98 |
| MTSSGFTVFLILLLMLTLVVAPKEKAEAASS | 1.98 |
| MTSSGGMFIVFICFFVLFSVHPIAAAAADS | 6.41 |
| MTSSLIGFLVLVPALIMSGITLIEANKK | 3.95 |
| MTTAAAVLLSLGLVFGFSYGAGHVAEAKTK | 2.82 |
| MTTGLLASLVLCLSLSPLVSTNEVFAATT | 4.99 |
| MTTKFKKKRRFLLCFMPAAKIEHTQASLL | 7.76 |
| MTTKFTALAVFLKEHTQASLL | 6.23 |
| MTTKFTALAVFLLCFMPAAKIEHTQASLL | 4.17 |
| MTTKFTALAVFLLCFMPAAKIKRKHTQASLL | 7.32 |
| MTTKFTALAVFLLCFMPAAVIEHTQASLL | 5.46 |
| MTTKYSKQSKQLLCFMPAAKIEHTQASLL | 7.85 |
| MTTTAWFLPLVCVLLISGWLAPAASASAQTT | 2.09 |
| MTTTIAWFLPLVCVLLISGWLAPAASASAQTT | 2.38 |
| MTTTSIFVITCVMAASLTLGSLLPAGYASAKED | 3.58 |

| Sequence | AmyQ secretion efficiency |
| --- | --- |
| MTTWIVLFLVLIAAAISIFVYVSTGSEK | 8.09 |
| MTVPITMLLSTAAGLLLSLTATSVSAHYV | 6.06 |
| MTVPKTMLLSTAAGLLLSLTATSVSAHYV | 6.58 |
| MVKKWLIMFAVMLGVLMTFTYSASAVGV | 1.93 |
| MVKKWLIQFAVMLSVLSKKRRKKASAVGV | 7.67 |
| MVKKWLIQFAVMLSVLSTFTYSASAVGV | 3.04 and 1.99 |
| MVKKWLIQFAVMLSVLSTFTYSASIVGV | 8.01 |
| MVKKWLRRRRVMLSVLSTFTYSASAVGV | 6.88 |
| MVKKWYYQSKSSLSVLSTFTYSASAVGV | 5.88 |
| MYGKIALTLCPAIVGSLLFFTAPASAHVS | 2.26 |
| MYKGWLIQFAVMLSVLSTFTYSASAVGV | 5.73 |
| MYKKFVPFAVFLFLFFVSFEMMENCHALDY | 7.9 |
| MYKKFVPFAVFLFLFFVSFEMMENPHALDY | 7.08 |
| MYKKFVPFAVFLFLFFVSFRKMRNPHALDY | 6.42 |
| MYKKFVPFRRRKKRFFVSFEMMENPHALDY | 7.64 |
| MYKKFVPRTQYSRLFFVSFEMMENPHALDY | 7.24 |
| MYKKFVPTYTKYFLFFVSFEMMENPHALDY | 6.52 |
| MYNRKRRVCFLAALIMAFTLPNSVYAQKP | 2.73 |
| MYSAIIIAIIAAVIVIAALITFNVRNASPG | 7.59 |
| MYSKGLLAGALTATVLFGTCAVDVPGIISPKTAEAASQ | 2.38 |
